Protein stability index data for 94 variants are collected here from the supplement of paper PMC10567573.

B1: TRIM63 (parent)
chain: QRITQEQEKKLSFIEALIQQYQEQ
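Note: lentivirally expressed fusions sorted by FACS into six bins by GFP to DsRed ratio, PSI derived from sequencing read proportions per bin multiplied by bin number.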

In this data set the parent is B1. In words: protein stability index of a GFP-peptide fusion (GPS, HEK-293T) (PSI 1-6); higher = more stable. The note with it: c terminus: a fixed tail appended.
For the variant QRITQEQEKKLGFIEALIQQYQEQ [S12G], the protein stability index stood at 2.71. As to QRITQEQEKKLFFIEALIQQYQEQ [S12F], the protein stability index stood at 2.56. The value for QRITQEQEKKLHFIEALIQQYQEQ [S12H] was 2.9; that for QRITQEQEKKLDFIEALIQQYQEQ [S12D] was 2.86; that for QRITQEQEKKLAFIEALIQQYQEQ [S12A] was 3.19.

In the case of QRITQEQEKKLCFIEALIQQYQEQ [S12C], the protein stability index worked out at 2.25. Regarding QRITQEQEKKLMFIEALIQQYQEQ [S12M], the protein stability index stood at 1.86. As for QRITQEQEKKLKFIEALIQQYQEQ [S12K], the protein stability index was 1.91.

With QRITQEQEKKLLFIEALIQQYQEQ [S12L], the protein stability index stood at 2.39. The result for QRITFEQEKKLSFIEALIQQYQEQ [Q5F] reads 1.73. For QRITLEQEKKLSFIEALIQQYQEQ [Q5L], the protein stability index is 1.68. As for QRITGEQEKKLSFIEALIQQYQEQ [Q5G], the protein stability index came to 2.62. As to QRITSEQEKKLSFIEALIQQYQEQ [Q5S], the protein stability index is 2.17.

In the case of QRITEEQEKKLSFIEALIQQYQEQ [Q5E], the protein stability index was found to be 2.98. Consider QRITYEQEKKLSFIEALIQQYQEQ [Q5Y], for which the protein stability index turned out to be 2.27. As to QRITPEQEKKLSFIEALIQQYQEQ [Q5P], the protein stability index was 2.13. For the variant QRITWEQEKKLSFIEALIQQYQEQ [Q5W], the protein stability index came out at 1.24. On to QRITIEQEKKLSFIEALIQQYQEQ [Q5I], for which the protein stability index worked out at 2.39. The value for QRITDEQEKKLSFIEALIQQYQEQ [Q5D] was 2.74; that for QRITREQEKKLSFIEALIQQYQEQ [Q5R] was 2.24; that for QRITMEQEKKLSFIEALIQQYQEQ [Q5M] was 2.33.

Turning to QRITCEQEKKLSFIEALIQQYQEQ [Q5C], the protein stability index came out at 2.39.

For the variant QRITNEQEKKLSFIEALIQQYQEQ [Q5N], the protein stability index was found to be 2.32. For the variant QRITVEQEKKLSFIEALIQQYQEQ [Q5V], the protein stability index stood at 1.94.

In the case of QRITHEQEKKLSFIEALIQQYQEQ [Q5H], the protein stability index was determined as 2.05. Turning to QRITAEQEKKLSFIEALIQQYQEQ [Q5A], the protein stability index was 2.5. For QRITTEQEKKLSFIEALIQQYQEQ [Q5T], the protein stability index turned out to be 2.58. As to QRITKEQEKKLSFIEALIQQYQEQ [Q5K], the protein stability index was 2.82.

As to QRITQNQEKKLSFIEALIQQYQEQ [E6N], the protein stability index stood at 1.73. QRITQPQEKKLSFIEALIQQYQEQ [E6P]: the protein stability index was 1.97. With QRITQTQEKKLSFIEALIQQYQEQ [E6T], the protein stability index stood at 1.7. QRITQSQEKKLSFIEALIQQYQEQ [E6S]: the protein stability index turned out to be 2.09. The result for QRITQRQEKKLSFIEALIQQYQEQ [E6R] reads 1.88; that for QRITQDQEKKLSFIEALIQQYQEQ [E6D], 2.12. QRITQGQEKKLSFIEALIQQYQEQ [E6G]: the protein stability index was determined as 2.39. Turning to QRITQCQEKKLSFIEALIQQYQEQ [E6C], the protein stability index came to 1.83.

Regarding QRITQIQEKKLSFIEALIQQYQEQ [E6I], the protein stability index is 1.62. As to QRITQLQEKKLSFIEALIQQYQEQ [E6L], the protein stability index worked out at 1.8.

On to QRITQHQEKKLSFIEALIQQYQEQ [E6H], for which the protein stability index turned out to be 1.71.

Regarding QRITQQQEKKLSFIEALIQQYQEQ [E6Q], the protein stability index worked out at 1.75. As to QRITQWQEKKLSFIEALIQQYQEQ [E6W], the protein stability index was determined as 1.43. For QRITQAQEKKLSFIEALIQQYQEQ [E6A], the protein stability index turned out to be 2.24.

Turning to QRITQVQEKKLSFIEALIQQYQEQ [E6V], the protein stability index is 1.81. Turning to QRITQMQEKKLSFIEALIQQYQEQ [E6M], the protein stability index was 2.27. The result for QRITQFQEKKLSFIEALIQQYQEQ [E6F] reads 1.9; that for QRITQKQEKKLSFIEALIQQYQEQ [E6K], 2. Turning to QRITQEQEQKLSFIEALIQQYQEQ [K9Q], the protein stability index was determined as 2.82.

For the variant QRITQEQEHKLSFIEALIQQYQEQ [K9H], the protein stability index was 2.6. For the variant QRITQEQEWKLSFIEALIQQYQEQ [K9W], the protein stability index was 3.8.

Take QRITQEQEFKLSFIEALIQQYQEQ [K9F]: the protein stability index is 2.78. For the variant QRITQEQEDKLSFIEALIQQYQEQ [K9D], the protein stability index came to 2.77. With QRITQEQEPKLSFIEALIQQYQEQ [K9P], the protein stability index was 3.01. The value for QRITQEQERKLSFIEALIQQYQEQ [K9R] was 2.74; that for QRITQEQEAKLSFIEALIQQYQEQ [K9A] was 2.6. In the case of QRITQEQEMKLSFIEALIQQYQEQ [K9M], the protein stability index is 2.44. Regarding QRITQEQELKLSFIEALIQQYQEQ [K9L], the protein stability index is 1.88. With QRITQEQEGKLSFIEALIQQYQEQ [K9G], the protein stability index amounted to 2.78. With QRITQEQECKLSFIEALIQQYQEQ [K9C], the protein stability index was 2.29. The result for QRITQEQEEKLSFIEALIQQYQEQ [K9E] reads 3.27; that for QRITQEQEIKLSFIEALIQQYQEQ [K9I], 1.79; that for QRITQEQEYKLSFIEALIQQYQEQ [K9Y], 2.2.

As to QRITQEQETKLSFIEALIQQYQEQ [K9T], the protein stability index is 2.41. QRITQEQEVKLSFIEALIQQYQEQ [K9V]: the protein stability index was 2.22.

In the case of QRITQEQESKLSFIEALIQQYQEQ [K9S], the protein stability index turned out to be 2.7. The result for QRITQEQEKPLSFIEALIQQYQEQ [K10P] reads 2.77.

Take QRITQEQEKCLSFIEALIQQYQEQ [K10C]: the protein stability index is 2.04. With QRITQEQEKWLSFIEALIQQYQEQ [K10W], the protein stability index is 2.05.

For QRITQEQEKDLSFIEALIQQYQEQ [K10D], the protein stability index came to 3.67. For the variant QRITQEQEKALSFIEALIQQYQEQ [K10A], the protein stability index turned out to be 2.1. In the case of QRITQEQEKTLSFIEALIQQYQEQ [K10T], the protein stability index was 2.2. Consider QRITQEQEKQLSFIEALIQQYQEQ [K10Q], for which the protein stability index stood at 1.95. For QRITQEQEKILSFIEALIQQYQEQ [K10I], the protein stability index was 2.57. QRITQEQEKVLSFIEALIQQYQEQ [K10V]: the protein stability index was 2.02.

Take QRITQEQEKYLSFIEALIQQYQEQ [K10Y]: the protein stability index was found to be 1.73.

Take QRITQEQEKFLSFIEALIQQYQEQ [K10F]: the protein stability index amounted to 2.1.

As for QRITQEQEKELSFIEALIQQYQEQ [K10E], the protein stability index was 3.

As to QRITQEQEKRLSFIEALIQQYQEQ [K10R], the protein stability index worked out at 2.47. On to QRITQEQEKNLSFIEALIQQYQEQ [K10N], for which the protein stability index turned out to be 3. Regarding QRITQEQEKSLSFIEALIQQYQEQ [K10S], the protein stability index worked out at 2.73.

With QRITQEQEKLLSFIEALIQQYQEQ [K10L], the protein stability index amounted to 1.72. With QRITQEQEKGLSFIEALIQQYQEQ [K10G], the protein stability index came out at 3.58.

Regarding QRITQEQEKHLSFIEALIQQYQEQ [K10H], the protein stability index amounted to 2.7.

For the variant QQITQEQEKKLSFIEALIQQYQEQ [R2Q], the protein stability index stood at 2.23. On to QTITQEQEKKLSFIEALIQQYQEQ [R2T], for which the protein stability index turned out to be 2.42. Regarding QKITQEQEKKLSFIEALIQQYQEQ [R2K], the protein stability index amounted to 2.26. Take QWITQEQEKKLSFIEALIQQYQEQ [R2W]: the protein stability index is 2.2. For QIITQEQEKKLSFIEALIQQYQEQ [R2I], the protein stability index was 1.89. As to QVITQEQEKKLSFIEALIQQYQEQ [R2V], the protein stability index was determined as 2.72.

For QYITQEQEKKLSFIEALIQQYQEQ [R2Y], the protein stability index came to 1.75.

For the variant QSITQEQEKKLSFIEALIQQYQEQ [R2S], the protein stability index is 2.45.

Turning to QMITQEQEKKLSFIEALIQQYQEQ [R2M], the protein stability index was 2.48. Take QPITQEQEKKLSFIEALIQQYQEQ [R2P]: the protein stability index came to 3.23. For QNITQEQEKKLSFIEALIQQYQEQ [R2N], the protein stability index came to 2.91. The value for QLITQEQEKKLSFIEALIQQYQEQ [R2L] was 2.63.
